From US20260007767A1 (ACADEMIA SINICA, published 2026)

Target: T1, endogenous FLT3 on the plasma membranes of THP-1 or NOMO-1 cells (UniProt P36888 27-993, limits assumed)
T1 construct: whole, on cells
T1 sequence (looked up): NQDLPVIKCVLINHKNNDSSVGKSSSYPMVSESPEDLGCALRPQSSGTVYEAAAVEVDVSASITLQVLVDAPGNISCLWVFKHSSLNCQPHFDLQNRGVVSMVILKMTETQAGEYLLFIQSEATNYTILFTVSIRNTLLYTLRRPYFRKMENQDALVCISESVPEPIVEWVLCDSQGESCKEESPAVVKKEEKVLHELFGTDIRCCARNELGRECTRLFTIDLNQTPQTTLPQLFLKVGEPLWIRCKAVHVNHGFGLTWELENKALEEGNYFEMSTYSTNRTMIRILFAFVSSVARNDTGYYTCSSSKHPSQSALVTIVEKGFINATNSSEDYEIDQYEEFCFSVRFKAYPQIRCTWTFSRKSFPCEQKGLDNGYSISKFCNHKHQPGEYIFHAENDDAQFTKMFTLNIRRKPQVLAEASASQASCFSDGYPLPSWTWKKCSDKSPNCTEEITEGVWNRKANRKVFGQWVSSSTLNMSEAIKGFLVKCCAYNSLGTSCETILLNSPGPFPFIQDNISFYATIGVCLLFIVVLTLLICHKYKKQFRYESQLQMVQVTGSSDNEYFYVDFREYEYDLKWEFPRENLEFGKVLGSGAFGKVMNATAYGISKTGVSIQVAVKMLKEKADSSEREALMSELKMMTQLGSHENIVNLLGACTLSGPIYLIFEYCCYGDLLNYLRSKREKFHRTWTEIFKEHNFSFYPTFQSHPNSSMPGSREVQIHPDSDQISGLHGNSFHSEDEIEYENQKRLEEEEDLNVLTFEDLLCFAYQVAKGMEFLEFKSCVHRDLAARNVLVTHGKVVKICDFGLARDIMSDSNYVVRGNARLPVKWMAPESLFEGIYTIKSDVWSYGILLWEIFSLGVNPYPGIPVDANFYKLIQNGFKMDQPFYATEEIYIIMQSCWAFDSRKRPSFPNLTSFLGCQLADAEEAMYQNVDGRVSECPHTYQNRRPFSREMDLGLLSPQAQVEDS
Assay: interaction and colocalization in THP-1 or NOMO-1 cells (method not detailed)

B1: SCUBE1 on the cell surface of leukemia cells (THP-1, NOMO-1 and other lines) (other, human, UniProt Q8IWY4 24-988, looked up)
chain: GGSGLPGSVDVDECSEGTDDCHIDAICQNTPKSYKCLCKPGYKGEGKQCEDIDECENDYYNGGCVHECINIPGNYRCTCFDGFMLAHDGHNCLDVDECQDNNGGCQQICVNAMGSYECQCHSGFFLSDNQHTCIHRSNEGMNCMNKDHGCAHICRETPKGGVACDCRPGFDLAQNQKDCTLTCNYGNGGCQHSCEDTDTGPTCGCHQKYALHSDGRTCIETCAVNNGGCDRTCKDTATGVRCSCPVGFTLQPDGKTCKDINECLVNNGGCDHFCRNTVGSFECGCRKGYKLLTDERTCQDIDECSFERTCDHICINSPGSFQCLCHRGYILYGTTHCGDVDECSMSNGSCDQGCVNTKGSYECVCPPGRRLHWNGKDCVETGKCLSRAKTSPRAQLSCSKAGGVESCFLSCPAHTLFVPDSENSYVLSCGVPGPQGKALQKRNGTSSGLGPSCSDAPTTPIKQKARFKIRDAKCHLRPHSQARAKETARQPLLDHCHVTFVTLKCDSSKKRRRGRKSPSKEVSHITAEFEIETKMEEASDTCEADCLRKRAEQSLQAAIKTLRKSIGRQQFYVQVSGTEYEVAQRPAKALEGQGACGAGQVLQDSKCVACGPGTHFGGELGQCVSCMPGTYQDMEGQLSCTPCPSSDGLGLPGARNVSECGGQCSPGFFSADGFKPCQACPVGTYQPEPGRTGCFPCGGGLLTKHEGTTSFQDCEAKVHCSPGHHYNTTTHRCIRCPVGTYQPEFGQNHCITCPGNTSTDFDGSTNVTHCKNQHCGGELGDYTGYIESPNYPGDYPANAECVWHIAPPPKRRILIVVPEIFLPIEDECGDVLVMRKSASPTSITTYETCQTYERPIAFTSRSRKLWIQFKSNEGNSGKGFQVPYVTYDEDYQQLIEDIVRDGRLYASENHQEILKDKKLIKALFDVLAHPQNYFKYTAQESKEMFPRSFIKLLRSKVSRFLRPYK
notes: whole, on cells; Endogenous protein; in western blots it was in cell lysate; also called surface SCUBE1; membrane SCUBE1
B1: binds.
